Data published in the Immune Epitope Database (IEDB).
pIC50, pKd: −log10 of the molar value.

Experiments:
HLA-A*24:02 [1] = test: IEDB peptide-MHC binding, cellular MHC/competitive/fluorescence; ≥ and ≤ were set here for values at or beyond the usual limits of such assays; settings: source organism: Human herpesvirus 5 strain AD169
HLA-A*26:01 = test: IEDB peptide-MHC binding, purified MHC/competitive/fluorescence; filed as Kd, often an IC50 or EC50 that approximates it; ≥ and ≤ were set here for values at or beyond the usual limits of such assays; settings: source organism: Human immunodeficiency virus 1
HLA-A*01:01 [2] = test: as above; settings: source organism: Human immunodeficiency virus 1
HLA-B*08:01 [3] = test: as above; settings: source organism: Human immunodeficiency virus 1
HLA-B*57:01 = test: as above; settings: source organism: Human immunodeficiency virus 1
HLA-B*15:17 = test: as above; settings: source organism: Human immunodeficiency virus 1
HLA-A*30:01 = test: as above; settings: source organism: Human immunodeficiency virus 1
HLA-B*38:01 = test: as above; settings: source organism: Human immunodeficiency virus 1
HLA-B*15:09 = test: as above; settings: source organism: Human immunodeficiency virus 1
HLA-A*80:01 = test: IEDB peptide-MHC binding, purified MHC/direct/fluorescence; filed as Kd, often an IC50 or EC50 that approximates it; ≥ and ≤ were set here for values at or beyond the usual limits of such assays; settings: source organism: Human immunodeficiency virus 1
HLA-B*83:01 = test: IEDB peptide-MHC binding, purified MHC/competitive/fluorescence; filed as Kd, often an IC50 or EC50 that approximates it; ≥ and ≤ were set here for values at or beyond the usual limits of such assays; settings: source organism: Rickettsia felis URRWXCal2
HLA-B*46:01 = test: as above; settings: source organism: Rickettsia felis URRWXCal2
HLA-B*40:13 = test: as above; settings: source organism: Rickettsia felis URRWXCal2
HLA-C*06:02 = test: as above; settings: source organism: Rickettsia felis URRWXCal2
HLA-B*15:42 = test: as above; settings: source organism: Rickettsia felis URRWXCal2
HLA-A*32:15 = test: as above; settings: source organism: Rickettsia felis URRWXCal2
HLA-B*45:06 = test: as above; settings: source organism: Rickettsia felis URRWXCal2
HLA-B*27:20 = test: as above; settings: source organism: Rickettsia felis URRWXCal2
HLA-B*15:02 = test: as above; settings: source organism: Rickettsia felis URRWXCal2
HLA-C*14:02 = test: as above; settings: source organism: Rickettsia felis URRWXCal2
HLA-A*32:07 = test: as above; settings: source organism: Rickettsia felis URRWXCal2
HLA-A*31:01 = test: IEDB peptide-MHC binding, purified MHC/competitive/fluorescence; ≥ and ≤ were set here for values at or beyond the usual limits of such assays; settings: source organism: Homo sapiens
HLA-A*29:02 = test: as above; settings: source organism: Homo sapiens
HLA-B*58:01 = test: as above; settings: source organism: Homo sapiens
HLA-B*51:01 = test: as above; settings: source organism: Homo sapiens
HLA-A*11:01 = test: as above; settings: source organism: Homo sapiens
HLA-B*35:01 = test: as above; settings: source organism: Homo sapiens
HLA-A*03:01 = test: as above; settings: source organism: Homo sapiens
HLA-B*40:02 = test: as above; settings: source organism: Homo sapiens
HLA-B*07:02 = test: as above; settings: source organism: Homo sapiens
HLA-A*02:01 = test: as above; settings: source organism: Homo sapiens
HLA-A*01:01 [4] = test: as above; settings: source organism: Homo sapiens
HLA-B*08:01 [5] = test: as above; settings: source organism: Homo sapiens
HLA-B*44:03 = test: as above; settings: source organism: Homo sapiens
HLA-B*37:01 = test: as above; settings: source organism: Homo sapiens
HLA-A*24:02 [6] = test: as above; settings: source organism: Homo sapiens
HLA-A*68:02 = test: as above; settings: source organism: Homo sapiens
HLA-B*18:01 = test: as above; settings: source organism: Homo sapiens
HLA-A*25:01 = test: as above; settings: source organism: Homo sapiens
HLA-B*14:02 = test: as above; settings: source organism: Homo sapiens
HLA-B*53:01 = test: as above; settings: source organism: Homo sapiens
HLA-C*01:02 = test: IEDB peptide-MHC binding, purified MHC/direct/fluorescence; filed as Kd, often an IC50 or EC50 that approximates it; ≥ and ≤ were set here for values at or beyond the usual limits of such assays; settings: source organism: Homo sapiens
HLA-A*01:01 [7] = test: IEDB peptide-MHC binding, purified MHC/competitive/radioactivity; ≥ and ≤ were set here for values at or beyond the usual limits of such assays; settings: source organism: Human papillomavirus 16

FFFDIDLLL
pIC50 (HLA-A*24:02 [1]): ≤ 3.48

GTEEIRSLF
pKd (HLA-A*26:01): ≤ 4.70
pKd (HLA-A*01:01 [2]): ≤ 4.70
pKd (HLA-B*08:01 [3]): ≤ 4.70
pKd (HLA-B*57:01): 6.46
pKd (HLA-B*15:17): 6.65
pKd (HLA-A*30:01): 4.96
pKd (HLA-B*38:01): ≤ 4.70
pKd (HLA-B*15:09): ≤ 4.70
pKd (HLA-A*80:01): ≤ 4.70

FMYALSRAF
pKd (HLA-B*83:01): ≤ 5.30
pKd (HLA-B*46:01): 8.18
pKd (HLA-B*40:13): 8.35
pKd (HLA-C*06:02): 7.19
pKd (HLA-B*15:42): ≤ 5.30
pKd (HLA-A*32:15): 7.56
pKd (HLA-B*45:06): ≤ 5.30
pKd (HLA-B*27:20): ≥ 10.00
pKd (HLA-B*15:02): 8.66
pKd (HLA-C*14:02): ≥ 10.00
pKd (HLA-A*32:07): 6.31

LPSCPTNFCIF
pIC50 (HLA-A*31:01): ≤ 4.70
pIC50 (HLA-A*29:02): ≤ 4.70
pIC50 (HLA-B*58:01): ≤ 4.70
pIC50 (HLA-B*51:01): ≤ 4.70
pIC50 (HLA-A*11:01): ≤ 4.70
pIC50 (HLA-B*35:01): 7.32
pIC50 (HLA-A*03:01): ≤ 4.70
pIC50 (HLA-B*40:02): ≤ 4.70
pIC50 (HLA-B*07:02): 6.25
pIC50 (HLA-A*02:01): ≤ 4.70
pIC50 (HLA-A*01:01 [4]): ≤ 4.70
pIC50 (HLA-B*08:01 [5]): ≤ 4.70
pIC50 (HLA-B*44:03): ≤ 4.70
pIC50 (HLA-B*37:01): ≤ 4.70
pIC50 (HLA-A*24:02 [6]): 5.95
pIC50 (HLA-A*68:02): ≤ 4.70
pIC50 (HLA-B*18:01): ≤ 4.70
pIC50 (HLA-A*25:01): ≤ 4.70
pIC50 (HLA-B*14:02): ≤ 4.70
pIC50 (HLA-B*53:01): 6.07

ELHDHGVSSL
pKd (HLA-C*01:02): 8.41

QVDYYGLYY
pIC50 (HLA-A*01:01 [7]): 7.74
